Source: paper PMC12667214, “Phosphomimetic mutations near active sites of proteins in Thermus thermophilus suggest a widespread regulatory mechanism” (FEBS Open Bio, 2025)
Positions count from the first letter of the chain named. Names and notes keep the numbering of the source.

Tests used:
[1] = substrate: O=C(O)C[C@H](C(=O)O)[C@@H](O)C(=O)O; assay: A340 spectrophotometry; assay type: biochemical, Thermus thermophilus; conditions: 4 mM NADP+, 5 mM MgCl2, 100 mM KCl, 50 mM Tris-HCl pH 7.5, 60 °C
Source text: (§1) A340 spectrophotometry on ttIDH (isocitrate dehydrogenase)

[2] = substrate: NC(=O)c1ccc[n+]([C@@H]2O[C@H](COP(=O)(O)OP(=O)(O)OC[C@H]3O[C@@H](n4cnc5c(N)ncnc54)[C@H](OP(=O)(O)O)[C@@H]3O)[C@@H](O)[C@H]2O)c1; assay: A340 spectrophotometry; assay type: biochemical, Thermus thermophilus; conditions: 2 mM isocitrate, 5 mM MgCl2, 100 mM KCl, 50 mM Tris-HCl pH 7.5, 60 °C
Source text: as §1

[3] = substrate: Nc1ncnc2c1ncn2[C@@H]1O[C@H](COP(=O)(O)OP(=O)(O)OP(=O)(O)O)[C@@H](O)[C@H]1O; assay: pyruvate kinase/lactate dehydrogenase coupled assay, A340; assay type: biochemical, Thermus thermophilus; conditions: 1 mM CMP, 25 °C, pH 7.5, 5 mM MgCl2
Source text: (§2) pyruvate kinase/lactate dehydrogenase coupled assay, A340 on ttCMPK (CMP kinase)

[4] = substrate: Nc1ccn([C@@H]2O[C@H](COP(=O)(O)O)[C@@H](O)[C@H]2O)c(=O)n1; assay: as above; assay type: biochemical, Thermus thermophilus; conditions: 1 mM ATP, 25 °C, pH 7.5, 5 mM MgCl2
Source text: as §2

[5] = substrate: Nc1ncnc2c1ncn2[C@@H]1O[C@H](COP(=O)(O)OP(=O)(O)OP(=O)(O)O)[C@@H](O)[C@H]1O; assay: as above; assay type: biochemical, Thermus thermophilus; conditions: excess UMP (methods print 1 mM CMP), 25 °C, pH 7.5, 5 mM MgCl2
[6] = substrate: O=c1ccn([C@@H]2O[C@H](COP(=O)(O)O)[C@@H](O)[C@H]2O)c(=O)[nH]1; assay: purified protein; conditions: 1 mM ATP, 25 °C, pH 7.5, 5 mM MgCl2, 25.0 °C
[7] = substrate: O=P(O)(O)OP(=O)(O)O; assay: phosphate release, BIOMOL Green, A650; assay type: biochemical, Thermus thermophilus; conditions: 2 mM MgCl2, 100 mM KCl, 50 mM Tris-HCl pH 7.5, 60 °C
Source text: phosphate release, BIOMOL Green, A650 on ttPPase (inorganic pyrophosphatase)

[8] = substrate: Nc1ncnc2c1ncn2[C@@H]1O[C@H](COP(=O)(O)O)[C@@H](O)[C@H]1O; assay: pyruvate kinase/lactate dehydrogenase coupled assay, A340; assay type: biochemical, Thermus thermophilus; conditions: 1 mM ATP, 5 mM MgCl2, 100 mM KCl, 50 mM Tris-HCl pH 7.5, 25 °C
Source text: pyruvate kinase/lactate dehydrogenase coupled assay, A340 on ttAMPK (AMP kinase)

[9] = substrate: NC(=O)C1=CN([C@@H]2O[C@H](COP(=O)(O)OP(=O)(O)OC[C@H]3O[C@@H](n4cnc5c(N)ncnc54)[C@H](O)[C@@H]3O)[C@@H](O)[C@H]2O)C=CC1; assay: A340 spectrophotometry; assay type: biochemical, Thermus thermophilus; conditions: 25 μM oxaloacetate, 5 mM MgCl2, 100 mM KCl, 50 mM Tris-HCl pH 7.5, 30 °C
Source text: A340 spectrophotometry on ttMDH (malate dehydrogenase)

[10] = substrate: O=C(O)CC(=O)C(=O)O; assay: purified protein; conditions: 0.15 mM NADH, 5 mM MgCl2, 100 mM KCl, 50 mM Tris-HCl pH 7.5, 30 °C, 30.0 °C

B1: ttIDH (isocitrate dehydrogenase) (Thermus thermophilus HB8) (protein)
chain: PLITTETGKKMHVLEDGRKLITVIPGDGIGPECVEATLKVLEAAKAPLAYEVREAGASVFRRGIASGVPQETIESIRKTRVVLKGPLETPVGYGEKSANVTLRKLFETYANVRPVREFPNVPTPYAGRGIDLVVVRENVEDLYAGIEHMQTPSVAQTLKLISWKGSEKIVRFAFELARAEGRKKVHCATKSNIMKLAEGTLKRAFEQVAQEYPDIEAVHIIVDNAAHQLVKRPEQFEVIVTTNMNGDILSDLTSGLIGGLGFAPSANIGNEVAIFEAVHGSAPKYAGKNVINPTAVLLSAVMMLRYLEEFATADLIENALLYTLEEGRVLTGDVVGYDRGAKTTEYTEAIIQNLGKTPRKTQVRGYKPFRLPQVDGAIAPIVPRSRRVVGVDVFVETNLLPEALGKALEDLAAGTPFRLKMISNRGTQVYPPTGGLTDLVDHYRCRFLYTGEGEAKDPEILDLVSRVASRFRWMHLEKLQEFDGEPGFTKAQGED
notes: recombinant in E. coli C41(DE3)pRARE2, pET-11a, no tag mentioned
[1]
  Km: 34 ± 2 µM
  kcat: 26 ± 1 s⁻¹
[2]
  Km: 39 ± 1 µM
  kcat: 30 ± 2 s⁻¹

B2: ttIDH (isocitrate dehydrogenase) (Thermus thermophilus HB8; S98E) (protein)
chain: B1 chain with S97E
notes: as for B1
[1]
  Km: 178 ± 28 µM
  kcat: 0.19 ± 0.02 s⁻¹
[2]
  Km: 144 ± 21 µM
  kcat: 0.12 ± 0 s⁻¹

B3: ttCMPK (CMP kinase) (Thermus thermophilus HB8; S11E) (protein)
chain: MRGIVTIDGPEASGKSSVARRVAAALGVPYLSSGLLYRAAAFLALRAGVDPGDEEGLLALLEGLGVRLLAQAEGNRVLADGEDLTSFLHTPEVDRVVSAVARLPGVRAWVNRRLKEVPPPFVAEGRDMGTAVFPEAAHKFYLTASPEVRAWRRARERPQAYEEVLRDLLRRDERDKAQSAPAPDALVLDTGGMTLDEVVAWVLAHIRR
notes: recombinant in E. coli C41(DE3)pRARE2, pET-11a, no tag mentioned; monomer
[3]
  Km: 60 ± 14 µM
  kcat: 0.05 ± 0.01 s⁻¹

B4: ttCMPK (CMP kinase) (Thermus thermophilus HB8) (protein)
chain: B3 chain with E11S
notes: as for B3
[3]
  Km: 53 ± 1 µM
  kcat: 40 ± 1 s⁻¹
[4]
  Km: 61 ± 19 µM
  kcat: 54 ± 16 s⁻¹

B5: ttCMPK (CMP kinase) (Thermus thermophilus HB8; S11A) (protein)
chain: B3 chain with E11A
notes: as for B3
[4]
  Km: 53 ± 3 µM
  kcat: 57 ± 8 s⁻¹

B6: ttUMPK (UMP kinase) (Thermus thermophilus HB8) (protein)
chain: MKYKRVLLKLSGEFLTRNGFGIEPEATQALAREIKAAYDTGVQLAIVIGAGNLWRGARQGVGMDRATADYIGMLATIMNALALQDALESLGVPTRVQTALTITQVAEPYIRRRALRHLEKERIVIFGGGTGNPFFSTDTAAALRALEVGAEVVLMAKNKVDGVYSDDPRKNPEAVRFDELTYLEVLNRGLQVMDTTAITLCMEAGLPIVVFDIFKPGALVGIIQGEKVGTLIH
notes: recombinant in E. coli C41(DE3)pRARE2, pET-11a, no tag mentioned; hexamer (prokaryotic UMP kinases)
[5]
  Km: 214 ± 7 µM
  kcat: 14 ± 0 s⁻¹
[6]
  Km: 74 ± 10 µM
  kcat: 21 ± 1 s⁻¹

B7: ttUMPK (UMP kinase) (Thermus thermophilus HB8; S11A) (protein)
chain: B6 chain with S11A
notes: as for B6
[5]
  Km: 732 ± 206 µM
  kcat: 0.04 ± 0.02 s⁻¹

B8: ttPPase (inorganic pyrophosphatase) (Thermus thermophilus HB8) (protein)
chain: ANLKSLPVGDKAPEVVHMVIEVPRGSGNKYEYDPDLGAIKLDRVLPGAQFYPGDYGFIPSTLAEDGDPLDGLVLSTYPLLPGVVVEVRVVGLLLMEDEKGGDAKVIGVVAEDQRLDHIQDIGDVPEGVKQEIQHFFETYKALEAKKGKWVKVTGWRDRKAALEEVRACIARYKG
notes: as for B1
[7]
  Km: 17 ± 2 µM
  kcat: 62 ± 11 s⁻¹

B9: ttPPase (inorganic pyrophosphatase) (Thermus thermophilus HB8; Y140F) (protein)
chain: B8 chain with Y139F
notes: as for B1
[7]
  Km: 53 ± 0 µM
  kcat: 19 ± 3 s⁻¹

B10: ttAMPK (AMP kinase) (Thermus thermophilus HB8) (protein)
chain: MDVGQAVIFLGPPGAGKGTQASRLAQELGFKKLSTGDILRDHVARGTPLGERVRPIMERGDLVPDDLILELIREELAERVIFDGFPRTLAQAEALDRLLSETGTRLLGVVLVEVPEEELVRRILRRAELEGRSDDNEETVRRRLEVYREKTEPLVGYYEARGVLKRVDGLGTPDEVYARIRAALGI
notes: recombinant in E. coli Rosetta2(DE3), pET-3a, no tag mentioned; monomer
[8]
  Km: 23 ± 1 µM
  kcat: 111 ± 3 s⁻¹

B11: ttAMPK (AMP kinase) (Thermus thermophilus HB8; S34E) (protein)
chain: B10 chain with S34E
notes: as for B10
[8]
  Km: 153 ± 1 µM
  kcat: 3.7 s⁻¹

B12: ttAMPK (AMP kinase) (Thermus thermophilus HB8; S34A) (protein)
chain: B10 chain with S34A
notes: as for B10
[8]
  Km: 71 ± 2 µM
  kcat: 142 ± 4 s⁻¹

B13: ttMDH (malate dehydrogenase) (Thermus thermophilus HB8) (protein)
chain: MKAPVRVAVTGAAGQIGYSLLFRIAAGEMLGKDQPVILQLLEIPQAMKALEGVVMELEDCAFPLLAGLEATDDPKVAFKDADYALLVGAAPRKAGMERRDLLQVNGKIFTEQGRALAEVAKKDVKVLVVGNPANTNALIAYKNAPGLNPRNFTAMTRLDHNRAKAQLAKKTGTGVDRIRRMTVWGNHSSTMFPDLFHAEVDGRPALELVDMEWYEKVFIPTVAQRGAAIIQARGASSAASAANAAIEHIRDWALGTPEGDWVSMAVPSQGEYGIPEGIVYSFPVTAKDGAYRVVEGLEINEFARKRMEITAQELLDEMEQVKALGLI
notes: as for B1
[9]
  Km: 2.7 ± 0.9 µM
  kcat: 126 ± 14 s⁻¹
[10]
  Km: 8.6 ± 0.4 µM
  kcat: 203 ± 5 s⁻¹

B14: ttMDH (malate dehydrogenase) (Thermus thermophilus HB8; S236A) (protein)
chain: B13 chain with S236A
notes: as for B1
[9]
  Km: 7.6 ± 0.2 µM
  kcat: 468 ± 15 s⁻¹
[10]
  Km: 52 ± 2 µM
  kcat: 622 ± 8 s⁻¹
